In patent publication US8916149B2, “Preventing and treating sepsis” (University of Rochester, priority 2008, dated 2014):

System: β1 and β3 integrin expressing HEK293T cells
Test: Yeast surface display binding of mutant APCs on HEK293 cells
Design: species or system human
Text: A broad-range of hosts and scaffolds based on ribosome display, phage display, and cell-surface display are used widely as systems to implement directed evolution (Hoogenboom, Nat. Biotechnol. 23:1105 (2005)). Among the cell surface display systems based on microbial and eukaryotic hosts, the yeast system offers the unique advantage of eukaryotic machinery that enables post-translational modification, glycosylation, and disulfide isomerization (Wittrup, Curr. Opin. Biotechnol. 12:392 (2001)). […] The yeast display system that was used employs the α-agglutinin yeast adhesion receptor to display recombinant proteins on cell surface of S. cerevisiae. The receptor consists of two proteins, Aga1 and Aga2 (FIG. 6). Aga1 is secreted and becomes covalently attached to β-glucan in the extracellular matrix of the yeast cell wall. Aga2 binds to Aga1 through two disulfide bonds, making it possible to express a protein of interest fused to Aga2.
Mixtures of 1 μg cDNA library and 0.5 μg of the Nhe1/BamH1 linearized pCTCON vector in 5 μl were transformed into 10^8 yeast cells by electroporation, which lead to ˜10^6 diversity in the library. Inside the cells, the cDNA library was recombined into the vector by the endogenous Gap repair protein. The yeast library of the human protein C was activated by thrombin. […]

B1: KR146/147GG+R177G: APC with combined substitutions K146G, R147G and R177G (protein)
chain: ANSFLEELRHSSLERECIEEICDFEEAKEIFQNVDDTLAFWSKHVDGDQCLVLPLEHPCASLCCGHGTCIDGIGSFSCDCRSGWEGRFCQREVSFLNCSLDNGGCTHYCLEEVGWRRCSCAPGYKLGDDLLQCHPAVKFPCGRPWGGMEKKRSHLKRDTEDQEDQVDPRLIDGKMTGRGDSPWQVVLLDSKKKLACGAVLIHPSWVLTAAHCMDESKKLLVRLGEYDLRRWEKWELDLDIKEVFVHPNYSKSTTDNDIALLHLAQPATLSQTIVPICLPDSGLAERELNQAGQETLVTGWGYHSSREKEAKRNRTFVLNFIKIPVVPHNECSEVMSNMVSENMLCAGILGDRQDACEGDSGGPMVASFHGTWFLVGLVSWGEGCGLLHNYGVYTKVSRYLDWIHGHIRDKEAPQKSWAP
binding of yeast expressing mutant APC on HEK293 cells compared to WT APC: further enhanced
